Publication PMC8867573

Columns and labels:
Test in all cases: purified protein
[1] = substrate: COc1cccc(OC)c1O; assay type: biochemical, Streptomyces coelicolor; details: pH 8.0, 42 °C, 0.25-15 mM substrate
[2] = substrate: CCn1c(=NN=c2sc3cc(S(=O)(=O)O)ccc3n2CC)sc2cc(S(=O)(=O)O)ccc21; details: pH 5.0, 42 °C, 0.1-25 mM substrate
[3] = substrate: COc1cc(-c2cc(OC)c(O)c(OC)c2)cc(OC)c1O; assay type: biochemical, Streptomyces coelicolor; details: pH 8.5, 42 °C, 0.025-2 mM substrate

B1: ScSLAC (small laccase, SLAC) (Streptomyces coelicolor A3(2); M298L) (protein)
chain: AKGITARTAPAGGEVRHLKMYAEKLADGQMGYGFEKGKASVPGPLIEVNEGDTLHIEFTNTMDVRASLHVHGLDYEISSDGTAMNKSDVEPGGTRTYTWRTHKPGRRDDGTWRPGSAGYWHYHDHVVGTEHGTGGIRNGLYGPVIVRRKGDVLPDATHTIVFNDMTINNRKPHTGPDFEATVGDRVEIVMITHGEYYHTFHMHGHRWADNRTGILTGPDDPSRVIDNKITGPADSFGFQIIAGEGVGAGAWMYHCHVQSHSDMGLVGLFLVKKPDGTIPGYEPHEHGGATAKSGESGEPTGGAAAHEHEH
For B1, the Km [1] was 1300 ± 90 µM, the kcat [1] was 1.5 s⁻¹ and the kcat/Km [1] was “kcat/Km = 1.2 × 10^3 s^–1 M^–1”. The Km [2] was 5000 ± 220 µM and the kcat [2] was 9.3 s⁻¹.

B2: ScSLAC (small laccase, SLAC) (Streptomyces coelicolor A3(2)) (protein)
chain: AKGITARTAPAGGEVRHLKMYAEKLADGQMGYGFEKGKASVPGPLIEVNEGDTLHIEFTNTMDVRASLHVHGLDYEISSDGTAMNKSDVEPGGTRTYTWRTHKPGRRDDGTWRPGSAGYWHYHDHVVGTEHGTGGIRNGLYGPVIVRRKGDVLPDATHTIVFNDMTINNRKPHTGPDFEATVGDRVEIVMITHGEYYHTFHMHGHRWADNRTGILTGPDDPSRVIDNKITGPADSFGFQIIAGEGVGAGAWMYHCHVQSHSDMGMVGLFLVKKPDGTIPGYEPHEHGGATAKSGESGEPTGGAAAHEHEH
In the case of B2, the Km [3] is reported as 300 ± 50 µM, the kcat [3] is reported as “kcat = 11.3 s^–1” and the kcat/Km [3] is reported as “kcat/Km = 3.8 × 10^4 s^–1 M^–1”. For the same protein, the Km [2] was 7300 ± 260 µM and the kcat [2] was 38.6 s⁻¹.

B3: ScSLAC (small laccase, SLAC) (Streptomyces coelicolor A3(2); M198F/M298F) (protein)
chain: AKGITARTAPAGGEVRHLKMYAEKLADGQMGYGFEKGKASVPGPLIEVNEGDTLHIEFTNTMDVRASLHVHGLDYEISSDGTAMNKSDVEPGGTRTYTWRTHKPGRRDDGTWRPGSAGYWHYHDHVVGTEHGTGGIRNGLYGPVIVRRKGDVLPDATHTIVFNDFTINNRKPHTGPDFEATVGDRVEIVMITHGEYYHTFHMHGHRWADNRTGILTGPDDPSRVIDNKITGPADSFGFQIIAGEGVGAGAWMYHCHVQSHSDMGFVGLFLVKKPDGTIPGYEPHEHGGATAKSGESGEPTGGAAAHEHEH
With B3 the Km [3] was 100 ± 20 µM, the kcat [3] was 5.6 s⁻¹ and the kcat/Km [3] was “kcat/Km = 5.6 × 10^4 s^–1 M^–1”. For the same protein, the Km [1] was 1100 ± 80 µM, the kcat [1] was 0.8 s⁻¹ and the kcat/Km [1] was “kcat/Km = 0.7 × 10^3 s^–1 M^–1”. It also gave a Km [2] of 1100 ± 40 µM and a kcat [2] of 3.9 s⁻¹.

B4: ScSLAC (small laccase, SLAC) (Streptomyces coelicolor A3(2); M298F) (protein)
chain: AKGITARTAPAGGEVRHLKMYAEKLADGQMGYGFEKGKASVPGPLIEVNEGDTLHIEFTNTMDVRASLHVHGLDYEISSDGTAMNKSDVEPGGTRTYTWRTHKPGRRDDGTWRPGSAGYWHYHDHVVGTEHGTGGIRNGLYGPVIVRRKGDVLPDATHTIVFNDMTINNRKPHTGPDFEATVGDRVEIVMITHGEYYHTFHMHGHRWADNRTGILTGPDDPSRVIDNKITGPADSFGFQIIAGEGVGAGAWMYHCHVQSHSDMGFVGLFLVKKPDGTIPGYEPHEHGGATAKSGESGEPTGGAAAHEHEH
In the case of B4, the Km [3] is reported as 300 ± 50 µM, the kcat [3] is reported as 5.4 s⁻¹ and the kcat/Km [3] is reported as “kcat/Km = 1.8 × 10^4 s^–1 M^–1”. The Km [1] was 1200 ± 190 µM, the kcat [1] was 0.7 s⁻¹ and the kcat/Km [1] was “kcat/Km = 0.6 × 10^3 s^–1 M^–1”. The Km [2] was 4100 ± 240 µM and the kcat [2] was 3.7 s⁻¹.
